The text below walks through data of patent US11827911B2, “Chimeric bacteriophage lysin with activity against Staphylococci bacteria” (priority 2008, dated 2023).

Test [1] concerns group A, B, C and E streptococci, S. gordonli, S. salivarius, S. uberis, Bacillus cereus, Pseudomonas aeruginosa and E. coli. In words: Muralytic activity on bacterial strains, Set III. Conditions: 50 U of ClyS, 15 minutes. The class given is cell-based, mix of Gram-positive and Gram-negative bacteria. The procedure: Muralytic activity of ClyS was tested on a number of bacterial strains representing a variety of species which were divided into sets (Table 1 and FIG. 10). Set I consisted of S. aureus strains including methicillin-sensitive S. aureus (MSSA) and MRSA. ClyS was active against MSSA and MRSA although differences were observed between S. aureus strains. Set II consisted of different species of staphylococci including S. epidermidis, S. simulans and S. sciuri. […] Set III consisted of a mix of Gram-positive and Gram-negative bacteria including representatives of group A, B, C and E streptococci, oral streptococcal species including S. gordonli, and S. salivarius, as well as S. uberis, Bacillus cereus, Pseudomonas aeruginosa and E. coli.
The viability assay of ClyS was tested as previously described (Nelson et al, 2001). Briefly, log phase cultures of S. aureus strain 8325-4 were resuspended in PB to OD600 of 0.8-1.0. 50 U of ClyS or the corresponding volume of PB was added to bacterial cells and aliquots were removed, serially diluted, and plated at 1, 5, 10, 30, and 60 minutes to assess the viability of the treated and control cells. All experiments were performed in triplicate. The activity of ClyS on various bacterial strains was tested as described previously (Schuch et al, 2002). Briefly, log phase bacterial cells were treated with 50 U of ClyS at 37° C. for 15 minutes. […]

Test [2] relates to S. aureus. In words: Lytic assays of chimeric lysins against S. aureus. Format: cell-based, Staphylococcus aureus. The settings on record: for lytic/killing activity against S. aureus: qualitative.
Test [3] concerns MRSA strain MW2. In words: Systemic MRSA infection model, survival. Format: in vivo, FVB/NJ mice. The procedure:
In order to assess whether ClyS treatment could prevent death resulting from systemic MRSA infections, 4 week old FVB/NJ mice were intraperitoneally injected with ˜5×10^5 CFU of the community-acquired MRSA strain MW2 in 5% mucin. Preliminary experiments determined that 5×10^5 CFU was 10× the LD100 dose for a twenty-four hour period. Furthermore, within 3 hours of IP injection the MRSA infection was systemic. i.e., MRSA were recovered in high numbers from heart, liver, spleen, and kidney (data not shown). Treatment occurred three hours post-infection, with either 20 mM phosphate buffer or 1 mg of ClyS in 20 mM phosphate buffer injected IP (intraperitoneally). Mice were then monitored for survival over ten days. The results from three independent experiments were combined (ClyS treatment, n=16; buffer treatment, n=14) and the mice survival data plotted with a Kaplan Meier Survival curve (FIG. 12), Within twenty-four hours all of the control mice died of bacterial sepsis, while only 2/16 of ClyS treated mice died at forty-eight hours, and the remaining mice (14/16, 88%) survived over the course of the experiments (FIG. 12).
To determine if this effect could be seen in our systemic MRSA infection model, FVB/NJ mice were intraperitoneally injected with ˜5×10^5 CFUs of the MRSA strain MW2 as above. Three hours post infection mice were treated in parallel, with a lower IP dose of 130 μg/mouse of ClyS combined with different concentrations of oxacillin (10-100 μg/mouse) or buffer alone controls. Preliminary experiments determined that an ED30 dose of ClyS (130 μg/mouse) had minimal efficacy to evaluate the effect of combinatorial treatment with oxacillin (data not shown). Mice were monitored for survival for 10 days and the results of 5 independent experiments were combined and plotted in a Kaplan Meier Survival curve (FIG. 14).

The subject of test [4] is MRSA (191-SM^R). Description: In vivo nasal decolonization of MRSA. Set-up: species or system C57BL/6J mice. The settings on record: three hourly intranasal doses of ClyS (960 μg) 24 h post-infection; 1 h after last treatment; p<0.001 vs buffer. An excerpt:
Carriage of both MSSA and MRSA in the human anterior nares is the major reservoir for S. aureus infection. Studies have shown that roughly 80% of the population could be nasally colonized by S. aureus, and that colonization can be an increased risk factor for developing other more serious S. aureus infections (Kluytmans, J., A. van Belkum. 1997. Nasal carriage of Staphylococcus aureus: epidemiology, underlying mechanisms, and associated risks. Clin Microbiol Rev 10(3): 505-20). Elimination of nasal carriage in the community or in the hospital setting thus could possibly reduce the risk of infection and slow the spread of drug resistant S. aureus (Kluytmans et al. (1997)). To study the potential of ClyS to reduce MRSA colonization of the nasal mucosa, C57BL/6J mice were intranasally inoculated with ˜2×10^7 of a spontaneously streptomycin resistant strain of MRSA (191-SM^R). Twenty-four hours post-infection mice were administered three doses hourly of either phosphate buffered saline (control) or ClyS (960 μg) into the nasal passages. One hour after the last treatment, mice were sacrificed and bacteria colonies were enumerated on Spectra MRSA agar, (a selective chromogenic medium developed to diagnostically detect MRSA nasal colonization) and Columbia blood agar. […]

Test [5] deals with S. aureus 8325-4 cells. Description: Transmission electron microscopy of the lytic effect. The class given is cell-based, Staphylococcus aureus. Conditions: 50 U of ClyS for 1-3 min. The method, then: However, unlike other lysins, the sites of degradation on the cell was not restricted to the septal or polar positions but was randomly distributed.
S. aureus strain 8325-4 was grown to log-phase, centrifuged and resuspended in PBS to an absorbance at 600 nm of 1.0. The bacterial suspension was incubated with 50 U of ClyS at room temperature. […] The suspension was pelleted by centrifugation and overlaid with 2.5% glutaraldehyde in 0.1 M cacodylate buffer (pH 7.4). The samples were then postfixed in 1% osmium tetroxide, block stained with uranyl acetate and processed according to standard procedures by The Rockefeller University Electron Microscopy Service.

For test [6], the system named is staphylococci. Description: Lytic activity of chimera lysates against staphylococci. Format: cell-based. Conditions: qualitative.

B1: ClyS: chimeric lysin: Twort lysin endopeptidase domain attached to the phiNM3 CWT domain, 280 amino acid residues (protein)
chain: METLKQAESYIKSKVNTGTDFDGLYGYQCMDLAVDYIYHVTDGKIRMWGNAKDAINNSFGGTATVYKNYPAFRPKYGDVVVWTTGNFATYGHIAIVTNPDPYGDLQYVTVLEQNWNGNGIYKTELATIRTHDYTGITHFIRPNFATESSVKKKDTKKKPKPSNRDGLNKDKIVYDRTNINYNMVLQGKSASKITVGSKAPYNLKWSKGAYFNAKIDGLGATSATRYGDNRTNYRFDVGQAVYAPGTLIYVFEIIDGWCRIYWNNHNEWIWHERLIVKEVF
modifications: Chimeric of Staphylococcus aureus bacteriophage Twort domain and Staphylococcus aureus phage phiNM3 CWT domain
notes: chimeric lysin: Twort lysin endopeptidase domain attached to the phiNM3 CWT domain, 280 amino acid residues
With B1, the “muralytic activity against Set III organisms” value in test [1] is listed as “no activity”. For the same molecule, the activity entry in test [2] (AD 127 from the pAD138 construct) is on record as “very high”. Also, the “lytic/killing activity against S. aureus” value in test [2] (listed as AD 127) is recorded as “very high activity”; in test [2] (listed as AD127), “little or no killing activity”. In addition, in test [3] (130 μg/mouse of ClyS IP alone, 10 days), the survival stood at 30%. In test [3] (1 mg of ClyS IP three hours post-infection), the “mice died at forty-eight hours” value is listed as 2/16. In addition, the “survival over the course of the experiments” value in test [3] (1 mg of ClyS IP three hours post-infection, ten days) is reported as 88%. In test [3] (IP, preliminary experiments), the ED30 dose was 130 μg/mouse. For the same molecule, in test [4], the “mean CFU on the nasal mucosa” value stood at 1198 CFU/cavity. Further, in test [5], the “lytic effect seen by transmission electron microscopy” value is “localized degradation of the cell wall”. The “lytic activity against staphylococci” value in test [6] is “active”.
